# Molecular target: T1, chimeric cynomolgus/human MAdCAM (cynomolgus; human, UniProt Q13477 226-382, limits assumed)
# T1 sequence: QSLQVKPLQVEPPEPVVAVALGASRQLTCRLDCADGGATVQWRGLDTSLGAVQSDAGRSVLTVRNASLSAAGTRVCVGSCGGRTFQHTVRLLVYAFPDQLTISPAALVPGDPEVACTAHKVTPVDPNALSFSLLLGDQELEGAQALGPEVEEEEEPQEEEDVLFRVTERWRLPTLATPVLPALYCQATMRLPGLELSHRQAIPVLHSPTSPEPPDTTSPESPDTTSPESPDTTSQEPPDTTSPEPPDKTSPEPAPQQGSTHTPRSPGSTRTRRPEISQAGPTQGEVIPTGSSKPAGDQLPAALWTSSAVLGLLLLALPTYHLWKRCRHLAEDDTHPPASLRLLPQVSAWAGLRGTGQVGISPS
# Assay: cell-based or functional assay
row,Binder,"Functional IC50 (µg/mL), cynomolgus/human MAdCAM-CHO/JY adhesion assay [µg/mL]"
1,"anti-MAdCAM monoclonal antibody 7.20.5 (antibody, human IgG2, kappa, V domains shown) VH: QVQLQESGPGLVKPSETLSLTCTVSGSSISSYHWNWIRQPAGKGLEWIGRIYTSGSTNYNPSLKSRVTMSLDTSKNQFSLKLSSVTAADTAVYYCAREGVRYYYASGSYYYGLDVWGQGTTVTVSS VL: not shown",0.62
2,"anti-MAdCAM monoclonal antibody 6.14.2 (antibody, human IgG4, kappa, V domains shown) VH: EVQLLESGGGLVQPGGSLRLSCAASGLTFNNSAMTWVRQAPGKGLEWVSTTSGSGGTTYYADSVKGRFTISRDSPKNTLYLQMNSLRAEDTAVYYCAARGYSYGTTPYEYWGQGTLVTVSS VL: DIQMTQSPSSLSASVGDRVTITCRASRSISSYLNWYQQKPGKAPKVLIFFVSSLQSGVPSRFSGSGSGTDFTLTISSLQPEDFATYYCQQNYIPPITFGQGTRLEIRR",0.53
3,"anti-MAdCAM monoclonal antibody 7.26.4 (antibody, human IgG2, kappa, V domains shown) VH: QVQLVQSGAEVKKPGASVKVSCEASGYTFTSYGIDWVRQAPGQGLEWMGWISVYSGNTNYAQKLQGRVTMSTDTSTSTAYMELRSLRSDDTAVYYCAREGSSSSGDYYYGMDVWGQGTTVTVSS VL: DIVMTQTPLSLSVTPGQPASISCKSNQSLLYSDGKTYLFWYLQKPGQPPQLLIYEVSNRFSGVPDRFSGSGSGTDFTLKISRVEAEDVGVYYCMQSIQLPWTFGQGTKVEIKR",0.96
4,"anti-MAdCAM monoclonal antibody 6.77.1 (antibody, human IgG4, kappa, V domains shown) VH: EVQLVESGGGLVKPGGSLRLSCAASGFTFSSYSMNWVRQAPGKGLEWVSSISSSSSYIYYADSVKGRFTISRDNAKNSLYLQMNSLRAEDTAVYYCARDGYSSGWSYYYYYGMDVWGQGTTVTVSS VL: DIVMTQTPLSLSVTPGQPASISCNSSQSLLLSDGKTYLNWYLQKPGQPPQLLIYEVSNRFSGVPDRFSGSGSGTDFTLKISRVEAEDVGVYSCMQSIQLMCSFGQGTKLEIKR",0.64
5,"anti-MAdCAM monoclonal antibody 6.34.2 (antibody, human IgG4, kappa, V domains shown) VH: QVQLVESGGGVVQPGRSLRLSCAASGFTFSSYGMHWVRQAPGKGLEWVAVISNDGNNKYYADSVKGRFTISRDNSKNTLYLQMNSLSAEDTAVYYCARDSTAITYYYYGMDVWGQGTTVTVSS VL: DIQMTQSPSSLSASVGDRVTITCRASQNISSYLNWFQQKPGKAPKLLIYAASGLKRGVPSRFSGSGSGTDFTLTIRTLQPDDFATYSCHQSYSLPFTFGPGTKVDIKR",0.47
6,"anti-MAdCAM monoclonal antibody 9.8.2 (antibody, human IgG4, kappa, V domains shown) VH: QVQLVESGGGVVQPGRSLRLSCAASGFTFSSYGMHWVRQAPGKGLEWVAVIWYDGSNEYYADSVKGRFTISRDNSKNTLYLQMNSLRAEDTAVYYCARGAYHFAYWGQGTLVTVSS VL: DIQMTQSPSSLSASVGDRVTITCQASQDISNYLNWYQQKPGKAPKLLIYDASNLETGVPSRFSGSGSGTDFTFTISSLQPEDIATYSCQHSDNLSITFGQGTRLEIKR",0.83
7,"anti-MAdCAM monoclonal antibody 6.22.2 (antibody, human IgG4, kappa, V domains shown) VH: QVQLVESGGGVVQPGRSLRLSCAASGHTFSSDGMHWVRQAPGKGLEWVAIIWYDGSNKYYADSVKGRFTISRDNSKNTLYLQMNSLRAEDTAVYYCARDPGYYYGMDVWGQGTTVTVSS VL: EIVLTQSPDFQSVTPKEKVTITCRASQRIGSSLHWYQQKPDQSPKLLIKYASQSFSGVPSRFSGSGSGTNFTLTINGLEAEDAATYYCHQSGRLPLTFGGGTKVEIKR",0.83
8,"anti-MAdCAM monoclonal antibody 6.67.1 (antibody, human IgG4, kappa, V domains shown) VH: QVQLQESGPGLVKPSETLSLTCTVSGDSISSNYWSWIRQPAGKGLEWIGRIYTSGGTNSNPSLRGRVTILADTSKNQFSLKLSSVTAADTAVYYCARDRITIIRGLIPSFFDYWGQGTLVTVSS VL: not shown",0.75

# Molecular target: MAdCAM-IgG1 Fc fusion protein (human)
# Assay: cell-based or functional assay
row,Binder,"Mean IC50, α4β7+ JY cell adhesion to coated MAdCAM IgG1 Fc fusion [µg/mL]"
1,"anti-MAdCAM monoclonal antibody 1.7.2 (antibody, human IgG2, kappa, V domains shown) VH: EVQLVESGGGLVKPGGSLRLSCVASGFTFTNAWMIWVRQAPGKGLEWVGRIKRKTDGGTTDYAAPVKGRFTISRDDSKNTLYLQMNSLKTEDTAVYYCTTGGVAEDYWGQGTLVTVSS VL: not shown",0.03
2,"anti-MAdCAM monoclonal antibody 1.8.2 (antibody, human IgG2, kappa, V domains shown) VH: EVQLVESGGGLVKPGGSLRLSCVVSGFTFTNAWMIWVRQAPGKGLEWVGRIKRKTDGGTTDYAAPVKGRFTISRDDSKNTLYLQMNSLKTEDTAVYYCTTGGVAEDYWGQGTLVTVSS VL: not shown",0.027
3,"anti-MAdCAM monoclonal antibody 7.20.5 (antibody, human IgG2, kappa, V domains shown) VH: QVQLQESGPGLVKPSETLSLTCTVSGSSISSYHWNWIRQPAGKGLEWIGRIYTSGSTNYNPSLKSRVTMSLDTSKNQFSLKLSSVTAADTAVYYCAREGVRYYYASGSYYYGLDVWGQGTTVTVSS VL: not shown",0.025
4,"anti-MAdCAM monoclonal antibody 7.26.4 (antibody, human IgG2, kappa, V domains shown) VH: QVQLVQSGAEVKKPGASVKVSCEASGYTFTSYGIDWVRQAPGQGLEWMGWISVYSGNTNYAQKLQGRVTMSTDTSTSTAYMELRSLRSDDTAVYYCAREGSSSSGDYYYGMDVWGQGTTVTVSS VL: DIVMTQTPLSLSVTPGQPASISCKSNQSLLYSDGKTYLFWYLQKPGQPPQLLIYEVSNRFSGVPDRFSGSGSGTDFTLKISRVEAEDVGVYYCMQSIQLPWTFGQGTKVEIKR",0.021

# Source: US20220119521A1 (Pfizer, published 2022)
